Columns and labels:
IL-12RB1-hFc = IL-12RB1-hFc (human, UniProt P42701); experiment: SPR, 25C
IL-12RB2-hFc = target: T1, IL-12RB2-hFc (human, UniProt Q99665); experiment: SPR, 25C
T1 chain: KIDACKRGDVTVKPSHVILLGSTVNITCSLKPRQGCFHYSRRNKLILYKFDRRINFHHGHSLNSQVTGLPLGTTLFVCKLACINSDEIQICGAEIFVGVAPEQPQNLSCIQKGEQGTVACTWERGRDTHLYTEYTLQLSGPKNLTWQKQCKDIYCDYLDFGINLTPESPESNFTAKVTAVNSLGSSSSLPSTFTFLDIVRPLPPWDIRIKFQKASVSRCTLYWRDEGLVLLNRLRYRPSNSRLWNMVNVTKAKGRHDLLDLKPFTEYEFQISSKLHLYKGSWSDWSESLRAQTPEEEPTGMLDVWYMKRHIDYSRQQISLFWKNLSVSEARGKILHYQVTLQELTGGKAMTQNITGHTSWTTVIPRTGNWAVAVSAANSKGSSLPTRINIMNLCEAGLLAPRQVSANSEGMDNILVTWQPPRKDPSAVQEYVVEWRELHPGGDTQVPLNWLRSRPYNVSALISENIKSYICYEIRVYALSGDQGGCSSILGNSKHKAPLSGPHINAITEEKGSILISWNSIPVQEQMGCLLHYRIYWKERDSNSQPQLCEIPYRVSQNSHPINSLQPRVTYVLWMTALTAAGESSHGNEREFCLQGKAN

Binder | Kd (IL-12RB1-hFc) | Kd (IL-12RB2-hFc)
IL-12p70 D94A (protein) chain 1: MIWELKKDVYVVELDWYPDAPGEMVVLTCDTPEEDGITWTLDQSSEVLGSGKTLTIQVKEFGDAGQYTCHKGGEVLSHSLLLLHKKEDGIWSTAILKDQKEPKNKTFLRCEAKNYSGRFTCWWLTTISTDLTFSVKSSRGSSDPQGVTCGAATLSAERVRGDNKEYEYSVECQEDSACPAAEESLPIEVMVDAVHKLKYENYTSSFFIRDIIKPDPPKNLQLKPLKNSRQVEVSWEYPDTWSTPHSYFSLTFSVQVQGKSKREKKDRVFTDKTSATVICRKNASISVRAQDRYYSSSWSEWASVPCSGGGSHHHHHH chain 2: MRNLPVATPDPGMFPSLHHSQNLLRAVSNMLQKARQTLEFYPCTSEEIDHEDITKDKTSTVEACLPLELTKNESCLNSRETSFITNGSSLASRKTSFMMALCLSSIYEDLKMYQVEFKTMNAKLLMDPKRQIFLDQNMLAVIDELMQALNFNSETVPQKSSLEEPDFYKTKIKLCILLHAFRIRAVTIDRVMSYLNAS | 0.69 nM | 0.43 nM
IL-12p70 E46K (protein) chain 1: MIWELKKDVYVVELDWYPDAPGEMVVLTCDTPEEDGITWTLDQSSKVLGSGKTLTIQVKEFGDAGQYTCHKGGEVLSHSLLLLHKKEDGIWSTDILKDQKEPKNKTFLRCEAKNYSGRFTCWWLTTISTDLTFSVKSSRGSSDPQGVTCGAATLSAERVRGDNKEYEYSVECQEDSACPAAEESLPIEVMVDAVHKLKYENYTSSFFIRDIIKPDPPKNLQLKPLKNSRQVEVSWEYPDTWSTPHSYFSLTFSVQVQGKSKREKKDRVFTDKTSATVICRKNASISVRAQDRYYSSSWSEWASVPCSGGGSHHHHHH chain 2: MRNLPVATPDPGMFPSLHHSQNLLRAVSNMLQKARQTLEFYPCTSEEIDHEDITKDKTSTVEACLPLELTKNESCLNSRETSFITNGSSLASRKTSFMMALCLSSIYEDLKMYQVEFKTMNAKLLMDPKRQIFLDQNMLAVIDELMQALNFNSETVPQKSSLEEPDFYKTKIKLCILLHAFRIRAVTIDRVMSYLNAS | 0.04 nM | 0.52 nM
IL-12p70 K59E (protein) chain 1: MIWELKKDVYVVELDWYPDAPGEMVVLTCDTPEEDGITWTLDQSSEVLGSGKTLTIQVEEFGDAGQYTCHKGGEVLSHSLLLLHKKEDGIWSTDILKDQKEPKNKTFLRCEAKNYSGRFTCWWLTTISTDLTFSVKSSRGSSDPQGVTCGAATLSAERVRGDNKEYEYSVECQEDSACPAAEESLPIEVMVDAVHKLKYENYTSSFFIRDIIKPDPPKNLQLKPLKNSRQVEVSWEYPDTWSTPHSYFSLTFSVQVQGKSKREKKDRVFTDKTSATVICRKNASISVRAQDRYYSSSWSEWASVPCSGGGSHHHHHH chain 2: MRNLPVATPDPGMFPSLHHSQNLLRAVSNMLQKARQTLEFYPCTSEEIDHEDITKDKTSTVEACLPLELTKNESCLNSRETSFITNGSSLASRKTSFMMALCLSSIYEDLKMYQVEFKTMNAKLLMDPKRQIFLDQNMLAVIDELMQALNFNSETVPQKSSLEEPDFYKTKIKLCILLHAFRIRAVTIDRVMSYLNAS | 0.07 nM | 0.49 nM
IL-12p70 K196A (protein) chain 1: MIWELKKDVYVVELDWYPDAPGEMVVLTCDTPEEDGITWTLDQSSEVLGSGKTLTIQVKEFGDAGQYTCHKGGEVLSHSLLLLHKKEDGIWSTDILKDQKEPKNKTFLRCEAKNYSGRFTCWWLTTISTDLTFSVKSSRGSSDPQGVTCGAATLSAERVRGDNKEYEYSVECQEDSACPAAEESLPIEVMVDAVHALKYENYTSSFFIRDIIKPDPPKNLQLKPLKNSRQVEVSWEYPDTWSTPHSYFSLTFSVQVQGKSKREKKDRVFTDKTSATVICRKNASISVRAQDRYYSSSWSEWASVPCSGGGSHHHHHH chain 2: MRNLPVATPDPGMFPSLHHSQNLLRAVSNMLQKARQTLEFYPCTSEEIDHEDITKDKTSTVEACLPLELTKNESCLNSRETSFITNGSSLASRKTSFMMALCLSSIYEDLKMYQVEFKTMNAKLLMDPKRQIFLDQNMLAVIDELMQALNFNSETVPQKSSLEEPDFYKTKIKLCILLHAFRIRAVTIDRVMSYLNAS | 0.04 nM | 0.58 nM
